The target in data set [1] is T1, His-RcrR (Streptococcus mutans UA159) (UniProt Q8DUK6).
T1 sequence: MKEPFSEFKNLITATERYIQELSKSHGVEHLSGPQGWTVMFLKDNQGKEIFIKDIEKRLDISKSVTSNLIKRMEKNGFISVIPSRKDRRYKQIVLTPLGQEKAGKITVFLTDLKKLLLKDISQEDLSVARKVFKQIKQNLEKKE
Kind of data set: EMSA. For orientation: Mobility shift assays separate free from complexed probe on a gel.

Data set [2] addresses T1, His-RcrR (Streptococcus mutans UA159). Kind of data set: DNase I footprinting.

Results on five sequences are retold here after PMC8407328.

As for “AGCGGTTTGAGCACTTTCACTACAGCGAAAAAGCAATCGTTTAAAGTGACTTTATCACCATCAAGCTATAAAAAATTAAATTAGTTCTCATAGAAACTTTTTTCTTGACAATAGTTTAAGGAATCATTATAATAGTTTTCATGAGAACTATTATAATATTCTCATAAAAAGTGAGGTGTTTTT (double strand) [P3 (rcrR promoter fragment 3)]”, the binding entry in data set [1] was “binds”.
On to “AGCGGTTTGAGCACTTTCACTACAGCGAAAAAGCAATCGTTTAAAGTGACTTTATCACCATCAAGCTATAAAAAATTAAATTAGTTCTCATAGAAACTTTTTTCTTGACAATAGTTTAAGGAATCATTATAATAGTTTTCATGAGAACTATTATAATATTCTCATAAAAAGTGAGGTGTTTTT (double strand) [P3 FAM-labeled]”, for which the binding result in data set [2] is reported as “binds”.
“AAAAACTCCTTTAAATTTCGTTAAGGATAATTTTGAGCAGTAAAAAAGCTCCTAATATAAAAATAGGAGCTGCCAAATAATAGGCTGGTTTTTTTTATAGATGGCTTCTCCCAAACATCCTTATGTAATTCTTCAATATGGTAACATGAAAATAGGGAAAAAGCAAATTTGTTCAATAAAGCCA (double strand) [P1 (rcrR promoter fragment 1)]”: the binding result in data set [1] is “no binding”.
On the same count and under the same terms, for “TAAATTTTTCCTAGGTTAACCTAGTCCTCCTTTAATATGATAACAGTACGTTTACTTTTTCATTGTAAACGATTACAAATTTGTTGGCAAGTTGTCCATAGGAAAAAAGCGCAATTTTTGTTAAAATAAAGTCAGTTGTATGCATTTTTTTAGACAAATTAGATTGAATTGCTTA (double strand) [PSMU_2038 (trehalose PTS promoter)]” the value was “binds”; for “GTCTTAGAAAGTAGTCAGAAGGATTAGACTTGTTTGGAAATGAATTATTCTTTTTATGGTTGTGGCTTTTCTTAAGTAATGAAGGCGAAAAGTGAATAGTCCAGCGGACTATTTTAGAAATTCAAGGGAGTTCCATTCTTTTTGGCGCCCCTAGGTCTTACCAACACCTCATGATAGAACTATA (double strand) [P2 (rcrR promoter fragment 2)]”, “no binding”.
